Our source for the protein stability index values is the supplement of paper PMC10567573.

The nature of the data set: protein stability index of a GFP-peptide fusion (GPS, HEK-293T) (PSI 1-6); higher = more stable.
Setting [1] is: treatment: DMSO, c terminus: a fixed tail appended.
[2] abbreviates: treatment: MLN4924 1 uM, 8 h, c terminus: a fixed tail appended.

± gives the standard deviation.
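Further: 24-mer peptide tiles fused after GFP, lentivirally expressed, FACS-sorted into six equal bins by GFP/DsRed ratio, decoded by Illumina sequencing, PSI is the read-weighted mean bin number.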

For WSKTQVLDWISYQVEKNKYDASAI [ELF3], the protein stability index runs as follows: under setting [1], 2.59 ± 0.2; under setting [2], 2.48 ± 0.28.

Regarding WYFWGETFQNSVFVATFLRYAVVL [SCD], the protein stability index runs as follows: under setting [1], 3.37 ± 0.33; under setting [2], 3.36 ± 0.85.

As for YATLDLNAVKYVSNIKFCSFHPLQ [PDS5B], the protein stability index under setting [1] turned out to be 2.31 ± 0.68 and the protein stability index under setting [2] worked out at 2.18 ± 0.35.

As for YAVEASTMAQHAEVLVKSNNLTDR [CARM1], the protein stability index runs as follows: under setting [1], 4.16 ± 0.14; under setting [2], 4.64 ± 0.34.

As for YGYNNVVTIPAGATHILVRQQGNP [ADAMTS4], the protein stability index was 2.53 ± 0.13 under setting [1] and 2.72 ± 0.34 under setting [2].

For the sequence YHIYVALEEEIERNKESPVFAPVY [HMOX1], the protein stability index worked out at 2.32 ± 0.28 under setting [1] and 3.03 ± 0.51 under setting [2].

Consider YIEMQTDPANCDYVIVSGAQRKEE [YJU2B], for which the protein stability index runs as follows: under setting [1], 4.2 ± 0.2; under setting [2], 4.57 ± 0.36.

For YIIIVPLKKSRGKFIKPWESPDEM [PTPRD], the protein stability index reads like this: under setting [1], 2.5 ± 0.45; under setting [2], 3.02 ± 1.5.

In the case of YKVKERLGTLKNPPKKKMKLMSG [LCOR], the protein stability index worked out at 2.51 ± 0.41 (treatment: DMSO, c terminus: native) and 3.27 ± 0.068 (treatment: MLN4924 1 uM, 8 h, c terminus: native).

As for YLSLLRMYLSPPSIHCLGPIKLEL [VPS39], the protein stability index was determined as 3.26 ± 0.43 under setting [1] and 2.94 ± 0.16 under setting [2].

For the sequence YPVGRFPSLHVVKVLLDCGADPDS [FEM1A], the protein stability index is, setting by setting: under setting [1], 2.12 ± 0.17; under setting [2], 2.38 ± 0.51.

On to YQDDPDLRFLLDQVQLGLRCCGAA [TSPAN10], for which the protein stability index by setting is: under setting [1], 2.56 ± 0.28; under setting [2], 2.65 ± 0.22.

Consider YQSKGYNDDYYEESYFTTRTYGEP [EMD], for which the protein stability index was determined as 2.78 ± 0.2 under setting [1] and 3.22 ± 0.29 under setting [2].

The sequence YRVLLGHTLILMFIWFVCSLVYYG [SLC22A15] registered a protein stability index under setting [1] of 2.32 ± 0.53 and a protein stability index under setting [2] of 2.33 ± 0.57.

Take YTVLGDTLIDGGEHYWEVRYEPDS [FSD1]: the protein stability index by setting is: under setting [1], 3.02 ± 0.2; under setting [2], 2.97 ± 0.34.

On to YVFYLAVGNYRLKEYEKALKYVRG [FIS1], for which the protein stability index was found to be 2.79 ± 0.36 under setting [1] and 2.39 ± 0.58 under setting [2].

In turn, YVGNLPPDIRTKDIEDVFYKYGAI [SRSF1] displayed a protein stability index under setting [1] of 2.28 ± 0.35 and a protein stability index under setting [2] of 2.43 ± 0.36.

YVPEKVKKAEKKLEENPYDLDAWS [CSTF3]: the protein stability index reads like this: under setting [1], 3.06 ± 0.62; under setting [2], 3.26 ± 0.87.

Consider YYEMGIHCWDVAGAGIIVTEAGGV [IMPA1], for which the protein stability index worked out at 2.21 ± 0.34 under setting [1] and 2.03 ± 0.37 under setting [2].
